Data taken from IntAct's records for PubMed 19513235.

B1: Mitogen-activated protein kinase kinase 2 (Arabidopsis thaliana (Mouse-ear cress)), Q9S7U9 (parent)
chain: MKKGGFSNNLKLAIPVAGEQSITKFLTQSGTFKDGDLRVNKDGVRIISQLEPEVLSPIKPADDQLSLSDLDMVKVIGKGSSGVVQLVQHKWTGQFFALKVIQLNIDEAIRKAIAQELKINQSSQCPNLVTSYQSFYDNGAISLILEYMDGGSLADFLKSVKAIPDSYLSAIFRQVLQGLIYLHHDRHIIHRDLKPSNLLINHRGEVKITDFGVSTVMTNTAGLANTFVGTYNYMSPERIVGNKYGNKSDIWSLGLVVLECATGKFPYAPPNQEETWTSVFELMEAIVDQPPPALPSGNFSPELSSFISTCLQKDPNSRSSAKELMEHPFLNKYDYSGINLASYFTDAGSPLATLGNLSGTFSV
partner: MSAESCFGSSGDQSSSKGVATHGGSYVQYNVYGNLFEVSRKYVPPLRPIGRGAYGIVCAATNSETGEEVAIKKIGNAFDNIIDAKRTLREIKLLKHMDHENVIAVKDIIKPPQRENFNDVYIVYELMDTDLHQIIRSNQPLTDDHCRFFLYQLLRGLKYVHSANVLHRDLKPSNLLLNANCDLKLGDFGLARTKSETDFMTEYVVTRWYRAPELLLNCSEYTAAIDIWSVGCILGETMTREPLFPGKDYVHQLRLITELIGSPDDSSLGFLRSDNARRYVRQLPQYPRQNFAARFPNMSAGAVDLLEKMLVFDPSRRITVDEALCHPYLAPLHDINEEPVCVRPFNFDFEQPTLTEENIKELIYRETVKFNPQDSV
B2: Mitogen-activated protein kinase kinase 9 (Arabidopsis thaliana (Mouse-ear cress)), Q9FX43 (parent)
chain: MALVRERRQLNLRLPLPPISDRRFSTSSSSATTTTVAGCNGISACDLEKLNVLGCGNGGIVYKVRHKTTSEIYALKTVNGDMDPIFTRQLMREMEILRRTDSPYVVKCHGIFEKPVVGEVSILMEYMDGGTLESLRGGVTEQKLAGFAKQILKGLSYLHALKIVHRDIKPANLLLNSKNEVKIADFGVSKILVRSLDSCNSYVGTCAYMSPERFDSESSGGSSDIYAGDIWSFGLMMLELLVGHFPLLPPGQRPDWATLMCAVCFGEPPRAPEGCSEEFRSFVECCLRKDSSKRWTAPQLLAHPFLREDL
B3: Mitogen-activated protein kinase kinase 2 (Arabidopsis thaliana (Mouse-ear cress)), Q9S7U9 (parent)
chain: B1 chain
partner: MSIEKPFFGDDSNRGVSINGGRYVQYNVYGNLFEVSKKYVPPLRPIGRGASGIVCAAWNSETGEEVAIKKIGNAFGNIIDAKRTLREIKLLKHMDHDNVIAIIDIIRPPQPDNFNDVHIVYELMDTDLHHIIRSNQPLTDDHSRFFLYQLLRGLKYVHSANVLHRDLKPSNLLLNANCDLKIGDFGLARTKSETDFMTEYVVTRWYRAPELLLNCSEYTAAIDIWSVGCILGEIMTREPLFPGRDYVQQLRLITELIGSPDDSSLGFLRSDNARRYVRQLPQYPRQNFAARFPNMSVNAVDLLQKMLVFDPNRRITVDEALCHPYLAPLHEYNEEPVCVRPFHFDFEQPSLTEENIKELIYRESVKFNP
B4: Mitogen-activated protein kinase kinase 9 (Arabidopsis thaliana (Mouse-ear cress)), Q9FX43 (parent)
chain: B2 chain
partner: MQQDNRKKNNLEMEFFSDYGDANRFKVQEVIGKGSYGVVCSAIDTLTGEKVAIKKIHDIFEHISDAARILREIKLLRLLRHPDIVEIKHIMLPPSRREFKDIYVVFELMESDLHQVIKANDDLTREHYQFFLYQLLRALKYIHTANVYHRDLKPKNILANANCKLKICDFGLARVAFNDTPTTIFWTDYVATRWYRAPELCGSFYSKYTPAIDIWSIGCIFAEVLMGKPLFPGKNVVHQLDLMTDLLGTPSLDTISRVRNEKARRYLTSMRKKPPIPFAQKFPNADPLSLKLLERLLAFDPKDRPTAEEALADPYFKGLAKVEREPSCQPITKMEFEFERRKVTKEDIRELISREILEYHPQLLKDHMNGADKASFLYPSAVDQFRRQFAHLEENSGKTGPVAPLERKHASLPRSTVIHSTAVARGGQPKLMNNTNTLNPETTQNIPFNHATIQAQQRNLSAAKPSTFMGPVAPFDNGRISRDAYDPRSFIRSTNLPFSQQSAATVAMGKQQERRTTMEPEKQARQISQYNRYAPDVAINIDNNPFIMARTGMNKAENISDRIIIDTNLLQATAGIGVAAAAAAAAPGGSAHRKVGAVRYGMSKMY

Variants of: B1
Conditions: with mpk4_arath MPK4, Q39024

effect of a mutation on the interaction | Variant
increasing interaction | MKKGGFSNNLKLAIPVAGEQSITKFLTQSGTFKDGDLRVNKDGVRIISQLEPEVLSPIKPADDQLSLSDLDMVKVIGKGSSGVVQLVQHKWTGQFFALKVIQLNIDEAIRKAIAQELKINQSSQCPNLVTSYQSFYDNGAISLILEYMDGGSLADFLKSVKAIPDSYLSAIFRQVLQGLIYLHHDRHIIHRDLKPSNLLINHRGEVKITDFGVSTVMTNDAGLANTFVGTYNYMSPERIVGNKYGNKSDIWSLGLVVLECATGKFPYAPPNQEETWTSVFELMEAIVDQPPPALPSGNFSPELSSFISTCLQKDPNSRSSAKELMEHPFLNKYDYSGINLASYFTDAGSPLATLGNLSGTFSV [T220D]
increasing interaction | MKKGGFSNNLKLAIPVAGEQSITKFLTQSGTFKDGDLRVNKDGVRIISQLEPEVLSPIKPADDQLSLSDLDMVKVIGKGSSGVVQLVQHKWTGQFFALKVIQLNIDEAIRKAIAQELKINQSSQCPNLVTSYQSFYDNGAISLILEYMDGGSLADFLKSVKAIPDSYLSAIFRQVLQGLIYLHHDRHIIHRDLKPSNLLINHRGEVKITDFGVSTVMTNTAGLANEFVGTYNYMSPERIVGNKYGNKSDIWSLGLVVLECATGKFPYAPPNQEETWTSVFELMEAIVDQPPPALPSGNFSPELSSFISTCLQKDPNSRSSAKELMEHPFLNKYDYSGINLASYFTDAGSPLATLGNLSGTFSV [T226E]

Variants of: B2
Conditions: with mpk6_arath MPK6, Q39026
Chain of mpk6_arath MPK6, Q39026 (Q39026 whole entry): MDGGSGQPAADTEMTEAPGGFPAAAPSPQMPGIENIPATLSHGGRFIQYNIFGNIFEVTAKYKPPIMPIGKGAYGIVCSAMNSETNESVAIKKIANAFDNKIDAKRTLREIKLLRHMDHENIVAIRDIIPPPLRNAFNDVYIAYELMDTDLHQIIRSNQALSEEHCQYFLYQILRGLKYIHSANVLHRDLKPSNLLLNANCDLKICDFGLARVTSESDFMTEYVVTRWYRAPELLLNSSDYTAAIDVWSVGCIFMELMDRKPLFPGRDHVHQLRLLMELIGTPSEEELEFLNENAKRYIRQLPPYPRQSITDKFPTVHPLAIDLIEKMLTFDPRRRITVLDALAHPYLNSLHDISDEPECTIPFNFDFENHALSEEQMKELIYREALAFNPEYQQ

effect of a mutation on the interaction | Variant
increasing interaction | MALVRERRQLNLRLPLPPISDRRFSTSSSSATTTTVAGCNGISACDLEKLNVLGCGNGGIVYKVRHKTTSEIYALKTVNGDMDPIFTRQLMREMEILRRTDSPYVVKCHGIFEKPVVGEVSILMEYMDGGTLESLRGGVTEQKLAGFAKQILKGLSYLHALKIVHRDIKPANLLLNSKNEVKIADFGVSKILVRELDSCNSYVGTCAYMSPERFDSESSGGSSDIYAGDIWSFGLMMLELLVGHFPLLPPGQRPDWATLMCAVCFGEPPRAPEGCSEEFRSFVECCLRKDSSKRWTAPQLLAHPFLREDL [S195E]
increasing interaction | MALVRERRQLNLRLPLPPISDRRFSTSSSSATTTTVAGCNGISACDLEKLNVLGCGNGGIVYKVRHKTTSEIYALKTVNGDMDPIFTRQLMREMEILRRTDSPYVVKCHGIFEKPVVGEVSILMEYMDGGTLESLRGGVTEQKLAGFAKQILKGLSYLHALKIVHRDIKPANLLLNSKNEVKIADFGVSKILVRSLDSCNEYVGTCAYMSPERFDSESSGGSSDIYAGDIWSFGLMMLELLVGHFPLLPPGQRPDWATLMCAVCFGEPPRAPEGCSEEFRSFVECCLRKDSSKRWTAPQLLAHPFLREDL [S201E]

Variants of: B2
Conditions: with mpk10_arath MPK10, Q9M1Z5
Chain of mpk10_arath MPK10, Q9M1Z5 (Q9M1Z5 whole entry): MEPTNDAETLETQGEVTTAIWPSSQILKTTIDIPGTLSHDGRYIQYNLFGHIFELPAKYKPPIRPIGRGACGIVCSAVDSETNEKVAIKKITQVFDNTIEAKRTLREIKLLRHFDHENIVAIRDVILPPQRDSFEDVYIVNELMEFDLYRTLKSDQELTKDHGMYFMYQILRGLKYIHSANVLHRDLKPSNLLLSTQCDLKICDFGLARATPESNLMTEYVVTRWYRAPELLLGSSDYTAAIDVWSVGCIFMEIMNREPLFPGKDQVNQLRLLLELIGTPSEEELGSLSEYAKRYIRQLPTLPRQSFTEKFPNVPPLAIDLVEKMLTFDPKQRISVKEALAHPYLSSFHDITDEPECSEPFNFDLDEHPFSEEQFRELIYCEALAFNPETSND

effect of a mutation on the interaction | Variant
increasing interaction | MALVRERRQLNLRLPLPPISDRRFSTSSSSATTTTVAGCNGISACDLEKLNVLGCGNGGIVYKVRHKTTSEIYALKTVNGDMDPIFTRQLMREMEILRRTDSPYVVKCHGIFEKPVVGEVSILMEYMDGGTLESLRGGVTEQKLAGFAKQILKGLSYLHALKIVHRDIKPANLLLNSKNEVKIADFGVSKILVRELDSCNSYVGTCAYMSPERFDSESSGGSSDIYAGDIWSFGLMMLELLVGHFPLLPPGQRPDWATLMCAVCFGEPPRAPEGCSEEFRSFVECCLRKDSSKRWTAPQLLAHPFLREDL [S195E]
increasing interaction | MALVRERRQLNLRLPLPPISDRRFSTSSSSATTTTVAGCNGISACDLEKLNVLGCGNGGIVYKVRHKTTSEIYALKTVNGDMDPIFTRQLMREMEILRRTDSPYVVKCHGIFEKPVVGEVSILMEYMDGGTLESLRGGVTEQKLAGFAKQILKGLSYLHALKIVHRDIKPANLLLNSKNEVKIADFGVSKILVRSLDSCNEYVGTCAYMSPERFDSESSGGSSDIYAGDIWSFGLMMLELLVGHFPLLPPGQRPDWATLMCAVCFGEPPRAPEGCSEEFRSFVECCLRKDSSKRWTAPQLLAHPFLREDL [S201E]

Variants of: B3
Conditions: with mpk11_arath MPK11, Q9LMM5

effect of a mutation on the interaction | Variant
increasing interaction | MKKGGFSNNLKLAIPVAGEQSITKFLTQSGTFKDGDLRVNKDGVRIISQLEPEVLSPIKPADDQLSLSDLDMVKVIGKGSSGVVQLVQHKWTGQFFALKVIQLNIDEAIRKAIAQELKINQSSQCPNLVTSYQSFYDNGAISLILEYMDGGSLADFLKSVKAIPDSYLSAIFRQVLQGLIYLHHDRHIIHRDLKPSNLLINHRGEVKITDFGVSTVMTNDAGLANTFVGTYNYMSPERIVGNKYGNKSDIWSLGLVVLECATGKFPYAPPNQEETWTSVFELMEAIVDQPPPALPSGNFSPELSSFISTCLQKDPNSRSSAKELMEHPFLNKYDYSGINLASYFTDAGSPLATLGNLSGTFSV [T220D]
increasing interaction | MKKGGFSNNLKLAIPVAGEQSITKFLTQSGTFKDGDLRVNKDGVRIISQLEPEVLSPIKPADDQLSLSDLDMVKVIGKGSSGVVQLVQHKWTGQFFALKVIQLNIDEAIRKAIAQELKINQSSQCPNLVTSYQSFYDNGAISLILEYMDGGSLADFLKSVKAIPDSYLSAIFRQVLQGLIYLHHDRHIIHRDLKPSNLLINHRGEVKITDFGVSTVMTNTAGLANEFVGTYNYMSPERIVGNKYGNKSDIWSLGLVVLECATGKFPYAPPNQEETWTSVFELMEAIVDQPPPALPSGNFSPELSSFISTCLQKDPNSRSSAKELMEHPFLNKYDYSGINLASYFTDAGSPLATLGNLSGTFSV [T226E]

Variants of: B4
Conditions: with mpk20_arath MPK20, Q9SJG9

effect of a mutation on the interaction | Variant
increasing interaction | MALVRERRQLNLRLPLPPISDRRFSTSSSSATTTTVAGCNGISACDLEKLNVLGCGNGGIVYKVRHKTTSEIYALKTVNGDMDPIFTRQLMREMEILRRTDSPYVVKCHGIFEKPVVGEVSILMEYMDGGTLESLRGGVTEQKLAGFAKQILKGLSYLHALKIVHRDIKPANLLLNSKNEVKIADFGVSKILVRSLDSCNEYVGTCAYMSPERFDSESSGGSSDIYAGDIWSFGLMMLELLVGHFPLLPPGQRPDWATLMCAVCFGEPPRAPEGCSEEFRSFVECCLRKDSSKRWTAPQLLAHPFLREDL [S201E]
increasing interaction | MALVRERRQLNLRLPLPPISDRRFSTSSSSATTTTVAGCNGISACDLEKLNVLGCGNGGIVYKVRHKTTSEIYALKTVNGDMDPIFTRQLMREMEILRRTDSPYVVKCHGIFEKPVVGEVSILMEYMDGGTLESLRGGVTEQKLAGFAKQILKGLSYLHALKIVHRDIKPANLLLNSKNEVKIADFGVSKILVRELDSCNSYVGTCAYMSPERFDSESSGGSSDIYAGDIWSFGLMMLELLVGHFPLLPPGQRPDWATLMCAVCFGEPPRAPEGCSEEFRSFVECCLRKDSSKRWTAPQLLAHPFLREDL [S195E]
